Laboratory results from patent US20240101668A1.

Experiments:
[1] = molecular target: huFLT3-M227 stably expressed on Ramos cells (human) (UniProt P36888); assay: FACS on cells
[2] = molecular target: huFLT3-T227 stably expressed on Ramos cells (human) (UniProt P36888); assay: FACS on cells

B1: Polypeptide No. 266 (scFv, V domains shown)
VH: QVQLVQSGAEVKKPGSSVKVSCKASGYSLTELSIHWVRQAPGQGLEWMGGINPISGTANYAQKFQGRVTITADESTSTAYMELSSLRSEDTAVYYCARGTVRLNWFDPWGQGTLVTVSS
VL: EIVMTQSPATLSVSPGERATLSCRASQSVGSQLGWYQQKPGQAPRLLIYGASTRATGIPARFSGSGSGTEFTLTISSLQSEDFAVYYCQQSFSTPLTFGGGTKVEIKR
FACS geometric mean fold change over Jurkat parental [1]: < 2 fold
FACS geometric mean fold change over Jurkat parental [2]: < 2 fold

B2: Polypeptide No. 289 (scFv, V domains shown)
VH: QVQLVQSGAEVKKPGASVKVSCKASGYTFTSYGISWVRQAPGQGLEWMGWMNPISGNTDYAPNFQGRVTMTRDTSTSTVYMELSSLRSEDTAVYYCVVERRREVGMDVWGQGTTVTVSS
VL: DIQMTQSPSSLSASVGDRVTITCQASQGITSYLNWYQQKPGKAPKLLIYKASSLESGVPSRFSGSGSGTDFTLTISSLQPEDFATYYCQQGYSTPLTFGGGTKVEIKR
FACS geometric mean fold change over Jurkat parental [1]: < 2 fold
FACS geometric mean fold change over Jurkat parental [2]: < 2 fold

B3: Polypeptide No. 258 (scFv, V domains shown)
VH: QVQLVQSGAEVKKPGASVKVSCKASGGTFGSYAISWVRQAPGQGLEWMGWINPNTGGAHYAQKFQGRVTMTRDTSTSTVYMELSSLRSEDTAVYYCARVGAAAGYQHWGQGTLVTVSS
VL: DIQMTQSPSSLSASVGDRVTITCRASQSIKGALAWYQQKPGKAPKLLIYSASNLQSGVPSRFSGSGSGTDFTLTISSLQPEDFATYYCQQYNSYPLTFGGGTKVEIKR
FACS geometric mean fold change over Jurkat parental [1]: < 2 fold
FACS geometric mean fold change over Jurkat parental [2]: < 2 fold

B4: Polypeptide No. 264 (scFv, V domains shown)
VH: QVQLVQSGAEVKKPGSSVKVSCKASGYTLTELSMHWVRQAPGQGLEWMGGIIPISSATSIPQKFQGRVTITADESTSTAYMELSSLRSEDTAVYYCARGALYSSSPVRVVAGTKGWFDPWGQGTLVTVSS
VL: DIQMTQSPSSLSASVGDRVTITCRASQDISNYLAWYQQKPGKAPKLLIYAASSLQSGVPSRFSGSGSGTDFTLTISSLQPEDFATYYCQQYYSYPLTFGGGTKVEIKR
FACS geometric mean fold change over Jurkat parental [1]: < 2 fold
FACS geometric mean fold change over Jurkat parental [2]: < 2 fold

B5: Polypeptide No. 251 (scFv, V domains shown)
VH: QVQLVQSGAEVKKPGSSVKVSCKASGGTFSSDAINWVRQAPGQGLEWMGGIIPIVGTPTYAQKFQGRVTITADESTSTAYMELSSLRSEDTAVYYCAKGLAFGVFDGLDVWGQGTTVTVSS
VL: EIVMTQSPATLSVSPGERATLSCRASQSVSSNYLAWYQQKPGQAPRLLIYDVSTRATGIPARFSGSGSGTEFTLTISSLQSEDFAVYYCQQYGSSTLTFGGGTKVEIKR
FACS geometric mean fold change over Jurkat parental [1]: < 2 fold
FACS geometric mean fold change over Jurkat parental [2]: < 2 fold

B6: Polypeptide No. 255 (scFv, V domains shown)
VH: QVQLVQSGAEVKKPGSSVKVSCKASGYTLTELSMHWVRQAPGQGLEWMGGIIPISGTVTYAQKFQGRVTITADESTSTAYMELSSLRSEDTAVYYCANKGQQLVRGYFQHWGQGTLVTVSS
VL: DIQMTQSPSSLSASVGDRVTITCQASHDIRNSVNWYQQKPGKAPKLLIYATSSLQSGVPSRFSGSGSGTDFTLTISSLQPEDFATYYCQQSYNTPFTFGQGTKLEIKR
FACS geometric mean fold change over Jurkat parental [1]: < 2 fold
FACS geometric mean fold change over Jurkat parental [2]: < 2 fold

B7: Polypeptide No. 267 (scFv, V domains shown)
VH: QVQLVQSGAEVKKPGSSVKVSCKASGYTLTSFGISWVRQAPGQGLEWVGMIIPLSGTTHYAQKFQGRVTITADESTSTAYMELSSLRSEDTAVYYCANLYGGNAYYYYGMDVWGQGTTVTVSS
VL: DIQMTQSPSSLSASVGDRVTITCRASQDISNFVAWYQQKPGKAPKLLIYAASSLQSGVPSRFSGSGSGTDFTLTISSLQPEDFATYYCQQSFDTPYTFGQGTKLEIKR
FACS geometric mean fold change over Jurkat parental [1]: < 2 fold
FACS geometric mean fold change over Jurkat parental [2]: < 2 fold

B8: Polypeptide No. 277 (scFv, V domains shown)
VH: QVQLVQSGAEVKKPGSSVKVSCKASGYTFTGYYMHWVRQAPGQGLEWMGWIDPNSGGTNYAQKFQGRVTITADESTSTAYMELSSLRSEDTAVYYCARDVDTAMVTDYWGRGTLVTVSS
VL: EIVMTQSPATLSVSPGERATLSCRASQSVDNLVGWYQQKPGQAPRLLIYDISSRATGIPARFSGSGSGTEFTLTISSLQSEDFAVYYCQQYGRSPITFGQGTRLEIKR
FACS geometric mean fold change over Jurkat parental [1]: < 2 fold
FACS geometric mean fold change over Jurkat parental [2]: < 2 fold
